IntAct's records for PubMed 29433439

B1: Phosphocholine transferase AnkX (Legionella pneumophila subsp. pneumophila), Q5ZXN6 (parent)
chain: MVKIMPNLPGLYFLQAYPSEEIWRLFVDGRFWSKENGWRGYESREPGCLNAALESLCSIALQVEKSGEEFELSVDLIKRIHKKCGKKVEELQEKNPGELRTDEPVSFGIPAGRASIKGIEEFLSLVFLTEGGAEFGPGKAGPFGPRFDKNYFKNLNPEQIPDLAKQIYFDMCKYGHSNTNHFYLAVMKNVDVYLEKITQSYNKEIKTAETLDEKLKIIVKHIRMYEVLHPFRDANGRTFVNNLLNILLMQQGLPPATFYEPNVFDLYSAEELVVVVKEAIFNTVEIIEQSKRKTPITLYGYHSSLEEQTKFRDMLDSPSYEKIKHMDFSDLNPEKLHLKTQKCLSSLNEQYPLHRGAIYLSDPGEIKLLLSNRNESQINQQIEQGAPPIYVGKTPAHLAVISGNMAMLDELIAKKADLSLQDYDGKTALHYAAECGNMQIMGKILKVVLSQEDAIKVLNIKDNHGKTAFHYAAEFGTPELISALTTTEVIQINEPDNSGSSAITLAYKNHKLKIFDELLNSGADISDELLDAIWARKDKETLGKIIAKNEKILLNKEAFRIAISLGSVSLVKKFLRAGVDIDIPLTKDKATPLMLSINSGNPKLVSYLLKKGANTRLTDTSGNSVLHYVFYSKAENREALANIITEKDKKLINQPNANGNPPLYNAVVVNDLKMATILLEMGARVDFEDRLGNNILHSAMRRCDLPIILDIVKKDSTLLHKRNSERRNPFHQALHEMHTFPSSKETEEIHFMNLSDLLLKEGVDLNKKDIKGKTILDIALSKQYFHLCVKLMKAGAHTNISSPSKFLKNSDANSILERPFKFKNDLKKELDNNPLIAMAQINDLYVQIKNNRIRTPTGYAPKEGVSFFKGKSNDAKAHDEVLSVLKELYDSKLTEMLGNLPGEGLEEIKRSQKFFDGELKLLIKNQDISRKVDKKSIQEAVGTSLKLKW
partner: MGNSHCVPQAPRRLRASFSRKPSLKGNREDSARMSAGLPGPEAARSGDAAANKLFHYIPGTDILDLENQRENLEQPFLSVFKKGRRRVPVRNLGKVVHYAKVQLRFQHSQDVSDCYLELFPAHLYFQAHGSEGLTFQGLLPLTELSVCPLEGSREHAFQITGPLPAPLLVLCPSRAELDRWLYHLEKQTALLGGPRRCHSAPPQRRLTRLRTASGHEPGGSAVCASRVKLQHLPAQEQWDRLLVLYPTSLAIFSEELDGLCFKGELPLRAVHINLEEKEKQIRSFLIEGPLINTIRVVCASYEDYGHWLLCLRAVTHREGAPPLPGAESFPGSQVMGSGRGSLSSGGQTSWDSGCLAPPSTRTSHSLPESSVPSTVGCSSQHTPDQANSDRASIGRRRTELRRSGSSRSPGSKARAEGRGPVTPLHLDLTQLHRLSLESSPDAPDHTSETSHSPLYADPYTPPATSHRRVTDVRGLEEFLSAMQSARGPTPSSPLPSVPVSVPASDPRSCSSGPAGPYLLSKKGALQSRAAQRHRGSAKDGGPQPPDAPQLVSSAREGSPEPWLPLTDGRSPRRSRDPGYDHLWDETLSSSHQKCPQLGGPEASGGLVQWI

Variants of: B1
Conditions: with pkhn1_human PLEKHN1, Q494U1

Question: With H229A as the variant, how does the “effect of a mutation on the interaction” value read?
Answer: decreasing interaction
